The subject of assay [1] is GIPR variants (groups). Briefly: cAMP accumulation. It counts as cell-based, human. Particulars: for In vitro groups (cAMP): cAMP part of the in vitro group; for percentage_camp: cAMP production compared with WT; for Beta, cAMP: in vitro cAMP production per GIPR variant. On the technique in general: cAMP levels reflect the balance of adenylyl cyclase and phosphodiesterase activity.
Protocol: HEK293 (CRL-1573, American Type Culture Collection) and β-arrestin 1/2 knockout cells, generated from HEK293A[48], were used for cAMP measurement, homologues competition binding and β-arrestin 2 recruitment. For the internalization assay, endosomal signalling and basal receptor localization experiments, HEK293A (R70507, Thermo Fisher) cells were used. Both cell lines were cultured at 5% CO2 at 37 °C in Roswell Park Memorial Institute GlutaMAX-I supplemented with 10% fetal bovine serum, 180 units ml^−1 penicillin, and 45 g ml^−1 streptomycin. For the cAMP and binding experiments, cells were transfected with the calcium phosphate precipitation method[49]. The polyethyleneimine (PEI) transfection method was used for the β-arrestin 2 recruitment assays[50], endosomal signalling and basal receptor localization assays, while the lipofectamine transfection method was used for the internalization assay.
(§1) cAMP production was measured with the DiscoverX Hithunter cAMP assay according to the manufacturer’s protocol (DiscoverX). […] On the day of the assay, the cells were washed twice with HEPES-buffered saline (HBS) and incubated with HBS and 1 mM 3-isobutyl-1-methylxanthine for 30 min at 37 °C. […] After the incubation, the assay medium was removed from the plate and the cells were washed with 30 µl PBS and treated with 40 µl enzyme donor–lysis buffer–chemiluminescent reagents and 10 µl cAMP antibodies for 60 min before 40 µl enzyme acceptor solution added. After a 3-h incubation on a shaking table in the dark, the cAMP accumulation was measured based on luminescence with a Perkin Elmer EnVision 2104 Multilabel Microplate Reader.
For cAMP accumulation, the data were fitted as a sigmoidal curve with a Hill slope of 1; for homologous competition binding, the data were fitted as a sigmoidal curve with a Hill slope of −1.

The target in assay [2] is T1, GIPR K397N (Homo sapiens, UniProt P48546, K397N).
T1 construct: host or cells: HEK293
T1 sequence (P48546 22-466 K397N): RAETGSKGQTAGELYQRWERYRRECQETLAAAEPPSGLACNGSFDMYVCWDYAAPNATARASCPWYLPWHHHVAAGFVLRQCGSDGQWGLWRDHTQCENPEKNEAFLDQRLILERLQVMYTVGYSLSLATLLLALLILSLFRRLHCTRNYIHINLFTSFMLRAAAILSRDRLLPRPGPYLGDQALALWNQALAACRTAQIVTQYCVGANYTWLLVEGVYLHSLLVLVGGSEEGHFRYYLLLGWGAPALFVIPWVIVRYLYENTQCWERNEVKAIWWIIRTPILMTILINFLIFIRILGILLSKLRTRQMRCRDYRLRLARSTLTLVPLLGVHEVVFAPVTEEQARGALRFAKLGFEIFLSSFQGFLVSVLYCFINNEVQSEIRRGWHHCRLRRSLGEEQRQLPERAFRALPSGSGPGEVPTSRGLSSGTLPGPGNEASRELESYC
In words: cAMP accumulation. It counts as cell-based.
Protocol: (§2) HEK293 (CRL-1573, American Type Culture Collection) and β-arrestin 1/2 knockout cells, generated from HEK293A[48], were used for cAMP measurement, homologues competition binding and β-arrestin 2 recruitment. […] Both cell lines were cultured at 5% CO2 at 37 °C in Roswell Park Memorial Institute GlutaMAX-I supplemented with 10% fetal bovine serum, 180 units ml^−1 penicillin, and 45 g ml^−1 streptomycin. For the cAMP and binding experiments, cells were transfected with the calcium phosphate precipitation method[49]. The polyethyleneimine (PEI) transfection method was used for the β-arrestin 2 recruitment assays[50], endosomal signalling and basal receptor localization assays, while the lipofectamine transfection method was used for the internalization assay.
(§3) cAMP production was measured with the DiscoverX Hithunter cAMP assay according to the manufacturer’s protocol (DiscoverX). […] On the day of the assay, the cells were washed twice with HEPES-buffered saline (HBS) and incubated with HBS and 1 mM 3-isobutyl-1-methylxanthine for 30 min at 37 °C. […] After a 3-h incubation on a shaking table in the dark, the cAMP accumulation was measured based on luminescence with a Perkin Elmer EnVision 2104 Multilabel Microplate Reader. […]

In assay [3] the test system is GIPR variants (groups). Briefly: β-arrestin 2 recruitment (BRET).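 On all read-outs here: BRET readout of β-arrestin 2 recruitment in transiently transfected HEK293 cells expressing WT GIPR or a GIPR variant plus GPCR kinase 2, Rluc8 donor and citrine acceptor.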 Conditions: for In vitro groups (β-arrestin): arr part of the in vitro group; for Beta, Barr: in vitro β-arrestin recruitment per GIPR variant.
In assay [4] the target is T2, GIPR V399M (Homo sapiens, UniProt P48546, V399M).
T2 construct: host or cells: HEK293
T2 sequence (P48546 22-466 V399M): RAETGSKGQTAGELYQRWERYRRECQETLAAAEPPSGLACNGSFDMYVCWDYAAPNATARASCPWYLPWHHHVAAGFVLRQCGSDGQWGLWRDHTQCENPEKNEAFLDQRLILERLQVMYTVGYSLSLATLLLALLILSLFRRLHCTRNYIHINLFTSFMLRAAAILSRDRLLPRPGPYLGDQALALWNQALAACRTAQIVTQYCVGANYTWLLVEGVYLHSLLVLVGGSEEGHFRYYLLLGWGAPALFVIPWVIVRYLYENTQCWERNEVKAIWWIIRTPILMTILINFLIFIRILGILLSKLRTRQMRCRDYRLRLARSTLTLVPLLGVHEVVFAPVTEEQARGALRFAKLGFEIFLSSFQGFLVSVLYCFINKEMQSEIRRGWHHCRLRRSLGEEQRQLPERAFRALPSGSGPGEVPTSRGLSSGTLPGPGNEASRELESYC
In words: cAMP accumulation. In kind it is cell-based.
Protocol: as §2, §3

Assay [5] addresses T3, GIPR E418K (Homo sapiens, UniProt P48546, E418K).
T3 construct: host or cells: HEK293
T3 sequence (P48546 22-466 E418K): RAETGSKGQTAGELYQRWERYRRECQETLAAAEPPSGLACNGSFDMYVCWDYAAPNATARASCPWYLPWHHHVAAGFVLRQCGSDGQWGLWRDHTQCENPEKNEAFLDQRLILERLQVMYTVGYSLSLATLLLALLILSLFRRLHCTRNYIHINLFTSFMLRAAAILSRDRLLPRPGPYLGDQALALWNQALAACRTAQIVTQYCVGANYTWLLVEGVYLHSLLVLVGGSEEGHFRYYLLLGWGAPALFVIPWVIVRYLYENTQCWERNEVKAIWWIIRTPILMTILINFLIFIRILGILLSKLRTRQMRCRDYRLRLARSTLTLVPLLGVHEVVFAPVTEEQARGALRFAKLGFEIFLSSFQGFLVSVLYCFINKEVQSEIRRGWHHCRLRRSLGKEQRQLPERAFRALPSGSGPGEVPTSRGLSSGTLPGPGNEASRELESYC
In words: cAMP accumulation. It counts as cell-based.
Protocol: (§4) HEK293 (CRL-1573, American Type Culture Collection) and β-arrestin 1/2 knockout cells, generated from HEK293A[48], were used for cAMP measurement, homologues competition binding and β-arrestin 2 recruitment. […] Both cell lines were cultured at 5% CO2 at 37 °C in Roswell Park Memorial Institute GlutaMAX-I supplemented with 10% fetal bovine serum, 180 units ml^−1 penicillin, and 45 g ml^−1 streptomycin. For the cAMP and binding experiments, cells were transfected with the calcium phosphate precipitation method[49].
as §1

For assay [6], the target named is T4, GIPR G449A (Homo sapiens, UniProt P48546, G449A).
T4 construct: host or cells: HEK293
T4 sequence (P48546 22-466 G449A): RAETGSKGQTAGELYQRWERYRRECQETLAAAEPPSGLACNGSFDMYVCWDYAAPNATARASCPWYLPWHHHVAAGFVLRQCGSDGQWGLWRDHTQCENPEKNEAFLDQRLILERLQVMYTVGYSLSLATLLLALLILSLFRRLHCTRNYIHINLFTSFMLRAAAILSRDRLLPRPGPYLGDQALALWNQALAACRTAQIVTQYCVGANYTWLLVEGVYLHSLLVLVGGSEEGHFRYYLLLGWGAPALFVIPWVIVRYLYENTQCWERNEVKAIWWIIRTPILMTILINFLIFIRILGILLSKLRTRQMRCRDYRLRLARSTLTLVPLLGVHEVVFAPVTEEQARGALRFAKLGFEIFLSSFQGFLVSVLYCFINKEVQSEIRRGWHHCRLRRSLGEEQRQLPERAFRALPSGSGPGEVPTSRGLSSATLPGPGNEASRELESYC
In words: cAMP accumulation. In kind it is cell-based.
Protocol: as §4, §1

Assay [7] concerns the target T5, GIPR S415I (Homo sapiens, UniProt P48546, S415I).
T5 construct: host or cells: HEK293
T5 sequence (P48546 22-466 S415I): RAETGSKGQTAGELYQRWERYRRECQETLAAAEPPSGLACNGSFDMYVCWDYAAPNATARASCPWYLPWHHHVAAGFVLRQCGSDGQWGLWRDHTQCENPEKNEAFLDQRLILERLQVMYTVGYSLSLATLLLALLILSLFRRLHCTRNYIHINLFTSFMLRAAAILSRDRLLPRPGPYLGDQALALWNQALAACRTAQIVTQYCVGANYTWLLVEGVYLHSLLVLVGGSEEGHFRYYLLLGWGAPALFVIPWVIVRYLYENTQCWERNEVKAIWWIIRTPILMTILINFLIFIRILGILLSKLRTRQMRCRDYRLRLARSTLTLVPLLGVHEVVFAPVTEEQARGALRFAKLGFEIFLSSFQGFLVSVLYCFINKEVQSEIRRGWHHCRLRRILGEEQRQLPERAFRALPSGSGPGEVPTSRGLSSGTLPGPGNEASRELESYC
Briefly: cAMP accumulation. It counts as cell-based.
Protocol: as §2, §3

B1: K397N (protein)
chain: RAETGSKGQTAGELYQRWERYRRECQETLAAAEPPSGLACNGSFDMYVCWDYAAPNATARASCPWYLPWHHHVAAGFVLRQCGSDGQWGLWRDHTQCENPEKNEAFLDQRLILERLQVMYTVGYSLSLATLLLALLILSLFRRLHCTRNYIHINLFTSFMLRAAAILSRDRLLPRPGPYLGDQALALWNQALAACRTAQIVTQYCVGANYTWLLVEGVYLHSLLVLVGGSEEGHFRYYLLLGWGAPALFVIPWVIVRYLYENTQCWERNEVKAIWWIIRTPILMTILINFLIFIRILGILLSKLRTRQMRCRDYRLRLARSTLTLVPLLGVHEVVFAPVTEEQARGALRFAKLGFEIFLSSFQGFLVSVLYCFINNEVQSEIRRGWHHCRLRRSLGEEQRQLPERAFRALPSGSGPGEVPTSRGLSSGTLPGPGNEASRELESYC
B1: in assay [1], the “In vitro groups (cAMP)” value is “WT-like_camp”; the percentage_camp was greater than 50% cAMP; the “Beta, cAMP” value stood at 0.5221. Further, the “Efficacy at 100pmol (cAMP)” value in assay [2] is 0.5221. In assay [3], the “In vitro groups (β-arrestin)” value is recorded as “LoF_arr” and the “Beta, Barr” value came to 0.3822.

B2: V399M (protein)
chain: RAETGSKGQTAGELYQRWERYRRECQETLAAAEPPSGLACNGSFDMYVCWDYAAPNATARASCPWYLPWHHHVAAGFVLRQCGSDGQWGLWRDHTQCENPEKNEAFLDQRLILERLQVMYTVGYSLSLATLLLALLILSLFRRLHCTRNYIHINLFTSFMLRAAAILSRDRLLPRPGPYLGDQALALWNQALAACRTAQIVTQYCVGANYTWLLVEGVYLHSLLVLVGGSEEGHFRYYLLLGWGAPALFVIPWVIVRYLYENTQCWERNEVKAIWWIIRTPILMTILINFLIFIRILGILLSKLRTRQMRCRDYRLRLARSTLTLVPLLGVHEVVFAPVTEEQARGALRFAKLGFEIFLSSFQGFLVSVLYCFINKEMQSEIRRGWHHCRLRRSLGEEQRQLPERAFRALPSGSGPGEVPTSRGLSSGTLPGPGNEASRELESYC
Regarding B2, in assay [1], the “In vitro groups (cAMP)” value is “LoF_camp”; the percentage_camp is less than 50% cAMP; the “Beta, cAMP” value stood at 0.2386. In assay [3], the “In vitro groups (β-arrestin)” value was “LoF_arr” and the “Beta, Barr” value worked out at 0. Also, the “Efficacy at 100pmol (cAMP)” value in assay [4] stood at 0.2386.

B3: E418K (protein)
chain: RAETGSKGQTAGELYQRWERYRRECQETLAAAEPPSGLACNGSFDMYVCWDYAAPNATARASCPWYLPWHHHVAAGFVLRQCGSDGQWGLWRDHTQCENPEKNEAFLDQRLILERLQVMYTVGYSLSLATLLLALLILSLFRRLHCTRNYIHINLFTSFMLRAAAILSRDRLLPRPGPYLGDQALALWNQALAACRTAQIVTQYCVGANYTWLLVEGVYLHSLLVLVGGSEEGHFRYYLLLGWGAPALFVIPWVIVRYLYENTQCWERNEVKAIWWIIRTPILMTILINFLIFIRILGILLSKLRTRQMRCRDYRLRLARSTLTLVPLLGVHEVVFAPVTEEQARGALRFAKLGFEIFLSSFQGFLVSVLYCFINKEVQSEIRRGWHHCRLRRSLGKEQRQLPERAFRALPSGSGPGEVPTSRGLSSGTLPGPGNEASRELESYC
As for B3, in assay [1], the “In vitro groups (cAMP)” value is “WT-like_camp”; the percentage_camp is reported as greater than 50% cAMP; the “Beta, cAMP” value is 0.7942. Also, in assay [3], the “In vitro groups (β-arrestin)” value was “WT-like_arr” and the “Beta, Barr” value is reported as 0.9111. Moreover, the “Efficacy at 100pmol (cAMP)” value in assay [5] is 0.7942.

B4: G449A (protein)
chain: RAETGSKGQTAGELYQRWERYRRECQETLAAAEPPSGLACNGSFDMYVCWDYAAPNATARASCPWYLPWHHHVAAGFVLRQCGSDGQWGLWRDHTQCENPEKNEAFLDQRLILERLQVMYTVGYSLSLATLLLALLILSLFRRLHCTRNYIHINLFTSFMLRAAAILSRDRLLPRPGPYLGDQALALWNQALAACRTAQIVTQYCVGANYTWLLVEGVYLHSLLVLVGGSEEGHFRYYLLLGWGAPALFVIPWVIVRYLYENTQCWERNEVKAIWWIIRTPILMTILINFLIFIRILGILLSKLRTRQMRCRDYRLRLARSTLTLVPLLGVHEVVFAPVTEEQARGALRFAKLGFEIFLSSFQGFLVSVLYCFINKEVQSEIRRGWHHCRLRRSLGEEQRQLPERAFRALPSGSGPGEVPTSRGLSSATLPGPGNEASRELESYC
Consider B4, for which, in assay [1], the “In vitro groups (cAMP)” value is reported as “WT-like_camp”; the percentage_camp was greater than 50% cAMP; the “Beta, cAMP” value was determined as 0.609. In addition, in assay [3], the “In vitro groups (β-arrestin)” value is “WT-like_arr” and the “Beta, Barr” value is on record as 0.5256. Further, in assay [6], the “Efficacy at 100pmol (cAMP)” value was found to be 0.609.

B5: S415I (protein)
chain: RAETGSKGQTAGELYQRWERYRRECQETLAAAEPPSGLACNGSFDMYVCWDYAAPNATARASCPWYLPWHHHVAAGFVLRQCGSDGQWGLWRDHTQCENPEKNEAFLDQRLILERLQVMYTVGYSLSLATLLLALLILSLFRRLHCTRNYIHINLFTSFMLRAAAILSRDRLLPRPGPYLGDQALALWNQALAACRTAQIVTQYCVGANYTWLLVEGVYLHSLLVLVGGSEEGHFRYYLLLGWGAPALFVIPWVIVRYLYENTQCWERNEVKAIWWIIRTPILMTILINFLIFIRILGILLSKLRTRQMRCRDYRLRLARSTLTLVPLLGVHEVVFAPVTEEQARGALRFAKLGFEIFLSSFQGFLVSVLYCFINKEVQSEIRRGWHHCRLRRILGEEQRQLPERAFRALPSGSGPGEVPTSRGLSSGTLPGPGNEASRELESYC
On to B5, for which, in assay [1], the “In vitro groups (cAMP)” value was “WT-like_camp”; the percentage_camp is on record as greater than 50% cAMP; the “Beta, cAMP” value turned out to be 0.6572. Besides, in assay [3], the “In vitro groups (β-arrestin)” value is listed as “WT-like_arr” and the “Beta, Barr” value was 0.9285. Further, the “Efficacy at 100pmol (cAMP)” value in assay [7] is 0.6572.

These data come from paper PMC11272584 (Nature Metabolism, 2024).
